{"source": "the supplement of paper PMC11246515", "assay": "total protein half-life in vivo (active degradation + dilution); higher = more stable protein", "key": {"[1]": {"conditions": "E. coli NCM3722 delta-clpP delta-lon delta-hslV, growth: N-lim chemostat, doubling time 6 h"}, "[2]": {"conditions": "E. coli NCM3722 delta-clpP, growth: N-lim chemostat, doubling time 6 h"}, "[3]": {"conditions": "E. coli NCM3722 delta-hslV, growth: N-lim chemostat, doubling time 6 h"}, "[4]": {"conditions": "E. coli NCM3722 delta-lon, growth: N-lim chemostat, doubling time 6 h"}, "[5]": {"conditions": "E. coli NCM3722 delta-smpB, growth: N-lim chemostat, doubling time 6 h"}, "[6]": {"conditions": "wild type E. coli NCM3722, growth: C-lim chemostat, doubling time 3 h"}, "[7]": {"conditions": "wild type E. coli NCM3722, growth: C-lim chemostat, doubling time 6 h"}, "[8]": {"conditions": "wild type E. coli NCM3722, growth: C-lim chemostat, doubling time 12 h"}, "[9]": {"conditions": "wild type E. coli NCM3722, growth: N-lim chemostat, doubling time 6 h"}, "[10]": {"conditions": "wild type E. coli NCM3722, growth: N-lim chemostat, doubling time 12 h"}, "[11]": {"conditions": "wild type E. coli NCM3722, growth: P-lim chemostat, doubling time 6 h"}, "[12]": {"conditions": "wild type E. coli NCM3722, growth: P-lim chemostat, doubling time 12 h"}}, "note": "± gives the standard deviation of the averaged measurements."}
{"sequence": "MSEPLLIARTPDTELFLLPGMANRHGLITGATGTGKTVTLQKLAESLSEIGVPVFMADVKGDLTGVAQAGTVSEKLLARLKNIGVNDWQPHANPVVVWDIFGEKGHPVRATVSDLGPLLLARLLNLNDVQSGVLNIIFRIADDQGLLLLDFKDLRAITQYIGDNAKSFQNQYGNISSASVGAIQRGLLSLEQQGAAHFFGEPMLDIKDWMRTDANGKGVINILSAEKLYQMPKLYAASLLWMLSELYEQLPEAGDLEKPKLVFFFDEAHLLFNDAPQVLLDKIEQVIRLIRSKGVGVWFVSQNPSDIPDNVLGQLGNRVQHALRAFTPKDQKAVKAAAQTMRANPAFDTEKAIQELGTGEALISFLDAKGSPSVVERAMVIAPCSRMGPVTEDERNGLINHSPVYGKYEDEVDRESAYEMLQKGFQASTEQQNNPPAKGKEVAVDDGILGGLKDILFGTTGPRGGKKDGVVQTMAKSAARQVTNQIVRGMLGSLLGGRRR", "values": [{"measurement": "total protein half-life in vivo", "setting": "[1]", "value": "5.04 ± 0.57", "unit": "h"}, {"measurement": "total protein half-life in vivo", "setting": "[2]", "value": "4.98 ± 0.19", "unit": "h"}, {"measurement": "total protein half-life in vivo", "setting": "[3]", "value": "5.1 ± 0.27", "unit": "h"}, {"measurement": "total protein half-life in vivo", "setting": "[4]", "value": "5.07 ± 0.26", "unit": "h"}, {"measurement": "total protein half-life in vivo", "setting": "[5]", "value": "4.73 ± 0.25", "unit": "h"}, {"measurement": "total protein half-life in vivo", "setting": "[6]", "value": "3.263 ± 0.025", "unit": "h"}, {"measurement": "total protein half-life in vivo", "setting": "[7]", "value": "5.39 ± 0.34", "unit": "h"}, {"measurement": "total protein half-life in vivo", "setting": "[8]", "value": "9.77 ± 0.81", "unit": "h"}, {"measurement": "total protein half-life in vivo", "setting": "[9]", "value": "4.77 ± 0.15", "unit": "h"}, {"measurement": "total protein half-life in vivo", "setting": "[10]", "value": "8.27 ± 0.62", "unit": "h"}, {"measurement": "total protein half-life in vivo", "setting": "[11]", "value": "5.66 ± 0.28", "unit": "h"}, {"measurement": "total protein half-life in vivo", "setting": "[12]", "value": "9.88 ± 0.78", "unit": "h"}]}
{"sequence": "MMSQPAKVLLLYAHPESQDSVANRVLLKPATQLSNVTVHDLYAHYPDFFIDIPREQALLREHEVIVFQHPLYTYSCPALLKEWLDRVLSRGFASGPGGNQLAGKYWRSVITTGEPESAYRYDALNRYPMSDVLRPFELAAGMCRMHWLSPIIIYWARRQSAQELASHARAYGDWLANPLSPGGR [P0A756]", "values": [{"measurement": "total protein half-life in vivo", "setting": "[1]", "value": "5.94 ± 0.44", "unit": "h"}, {"measurement": "total protein half-life in vivo", "setting": "[2]", "value": "5.15 ± 0.59", "unit": "h"}, {"measurement": "total protein half-life in vivo", "setting": "[3]", "value": "5.89 ± 0.62", "unit": "h"}, {"measurement": "total protein half-life in vivo", "setting": "[4]", "value": "5.99 ± 0.26", "unit": "h"}, {"measurement": "total protein half-life in vivo", "setting": "[5]", "value": "5.51 ± 0.33", "unit": "h"}, {"measurement": "total protein half-life in vivo", "setting": "[6]", "value": "2.94 ± 0.079", "unit": "h"}, {"measurement": "total protein half-life in vivo", "setting": "[7]", "value": "5.7 ± 1.1", "unit": "h"}, {"measurement": "total protein half-life in vivo", "setting": "[8]", "value": "10.6 ± 2.5", "unit": "h"}, {"measurement": "total protein half-life in vivo", "setting": "[9]", "value": "5.63 ± 0.52", "unit": "h"}, {"measurement": "total protein half-life in vivo", "setting": "[10]", "value": "10.74 ± 0.04", "unit": "h"}, {"measurement": "total protein half-life in vivo", "setting": "[11]", "value": "5.239 ± 0.0081", "unit": "h"}, {"measurement": "total protein half-life in vivo", "setting": "[12]", "value": "10.6 ± 0.47", "unit": "h"}]}
{"sequence": "MKDKVYKRPVSILVVIYAQDTKRVLMLQRRDDPDFWQSVTGSVEEGETAPQAAMREVKEEVTIDVVAEQLTLIDCQRTVEFEIFSHLRHRYAPGVTRNTESWFCLALPHERQIVFTEHLAYKWLDAPAAAALTKSWSNRQAIEQFVINAA [P0AFC0]", "values": [{"measurement": "total protein half-life in vivo", "setting": "[1]", "value": 3.93, "unit": "h"}, {"measurement": "total protein half-life in vivo", "setting": "[2]", "value": "> 8", "unit": "h"}, {"measurement": "total protein half-life in vivo", "setting": "[4]", "value": 3.07, "unit": "h"}, {"measurement": "total protein half-life in vivo", "setting": "[5]", "value": 2.07, "unit": "h"}, {"measurement": "total protein half-life in vivo", "setting": "[7]", "value": "> 8", "unit": "h"}, {"measurement": "total protein half-life in vivo", "setting": "[8]", "value": "4.68 ± 0.41", "unit": "h"}, {"measurement": "total protein half-life in vivo", "setting": "[9]", "value": "2.22 ± 0.26", "unit": "h"}, {"measurement": "total protein half-life in vivo", "setting": "[10]", "value": 3.45, "unit": "h"}, {"measurement": "total protein half-life in vivo", "setting": "[11]", "value": "2.75 ± 0.2", "unit": "h"}]}
{"sequence": "MSEKVVFSQLSRKFIDENDATPAEAQQVVYYSLAIGHHLGVIDCLEAALTCPWDEYLAWIATLEAGSEARRKMEGVPKYGEIVIDINHVPMLANAFDKARAAQTSQQQEWSTMLLSMLHDIHQENAIYLMVRRLRD [P0AEV7]", "values": [{"measurement": "total protein half-life in vivo", "setting": "[1]", "value": 3.73, "unit": "h"}, {"measurement": "total protein half-life in vivo", "setting": "[2]", "value": 2.63, "unit": "h"}, {"measurement": "total protein half-life in vivo", "setting": "[4]", "value": "2.37 ± 0.25", "unit": "h"}, {"measurement": "total protein half-life in vivo", "setting": "[5]", "value": 1.7, "unit": "h"}, {"measurement": "total protein half-life in vivo", "setting": "[6]", "value": 2.34, "unit": "h"}, {"measurement": "total protein half-life in vivo", "setting": "[7]", "value": 3.73, "unit": "h"}, {"measurement": "total protein half-life in vivo", "setting": "[8]", "value": 6.99, "unit": "h"}, {"measurement": "total protein half-life in vivo", "setting": "[9]", "value": "2.24 ± 0.23", "unit": "h"}, {"measurement": "total protein half-life in vivo", "setting": "[10]", "value": 2.34, "unit": "h"}, {"measurement": "total protein half-life in vivo", "setting": "[11]", "value": 3.21, "unit": "h"}, {"measurement": "total protein half-life in vivo", "setting": "[12]", "value": "6.49 ± 0.1", "unit": "h"}]}
